# Measurements reported in the Immune Epitope Database (IEDB).
# Target: HLA-A*02:01
# Test: IEDB peptide-MHC binding, purified MHC/competitive/radioactivity; ≥ and ≤ were set here for values at or beyond the usual limits of such assays
# Details: source organism: Toxoplasma gondii GT1
row,Sequence,IC50 [µM]
1,GLAETEVPV,0.5
2,ALDINLPNV,0.5
3,VMSELEFYL,0.1
4,LLSDLSVRL,0.5
5,ALAALAPSLEV,1
6,HLMDEAVEV,0.5
7,YLFKEGVIVV,0.5
8,YLSPIASPLL,0.1
9,FVLELEPEWTV,0.01
10,MLYAGAPTTV,0.1
